The target of this assay is human Toll-like receptor 5 (TLR5) in stably transfected HEK293 cells (TLR5+) (human) (UniProt O60602).
Chain of UniProt O60602 (O60602 21-858): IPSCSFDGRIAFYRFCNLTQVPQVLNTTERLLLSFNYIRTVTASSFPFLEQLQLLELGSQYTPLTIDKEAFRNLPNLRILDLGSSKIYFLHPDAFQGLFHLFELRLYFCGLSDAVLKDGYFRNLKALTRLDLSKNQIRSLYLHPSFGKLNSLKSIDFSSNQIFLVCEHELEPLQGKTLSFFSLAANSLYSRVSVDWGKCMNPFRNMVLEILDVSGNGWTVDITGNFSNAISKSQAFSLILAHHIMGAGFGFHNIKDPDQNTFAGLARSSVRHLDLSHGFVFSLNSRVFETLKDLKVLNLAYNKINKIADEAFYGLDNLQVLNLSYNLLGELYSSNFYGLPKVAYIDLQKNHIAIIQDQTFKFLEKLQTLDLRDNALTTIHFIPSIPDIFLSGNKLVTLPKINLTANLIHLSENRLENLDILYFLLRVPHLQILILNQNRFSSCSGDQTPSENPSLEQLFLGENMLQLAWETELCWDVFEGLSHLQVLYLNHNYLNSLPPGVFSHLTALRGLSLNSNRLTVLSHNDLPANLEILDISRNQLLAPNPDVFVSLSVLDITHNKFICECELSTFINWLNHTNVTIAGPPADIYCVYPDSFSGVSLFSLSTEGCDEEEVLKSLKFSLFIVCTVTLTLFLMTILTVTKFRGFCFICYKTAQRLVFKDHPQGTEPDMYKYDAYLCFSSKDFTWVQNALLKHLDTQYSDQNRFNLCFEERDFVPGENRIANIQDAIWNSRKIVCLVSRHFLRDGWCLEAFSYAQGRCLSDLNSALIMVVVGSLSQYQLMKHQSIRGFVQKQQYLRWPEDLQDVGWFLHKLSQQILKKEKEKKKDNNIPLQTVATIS

Take “recombinant CagL wild type (CagL^WT), C-terminal His-tag fusion (natural protein)”: the NF-κB luciferase activity in TLR5+ HEK293 cells, dose-response of recombinant CagL WT (EC50) came out at 173 nM.
